From patent publication US20250241939A1, “NUCLEIC ACID-BASED DELIVERY SYSTEMS AND USES THEREOF” (Kodikaz Therapeutic Solutions, Inc., priority 2022, published 2025)

Key:
Format in all cases: cell-based, human
[1] = test system: ctDNA chromatid integration in MM1s, MIA and HCT116 cell lines; experiment: Effect of reverse transcriptase or integrase inhibitors on ctDNA chromatid integration; conditions: HCT116 treated prior to adding ctDNA, compared to no treatment control
Description: To evaluate functionally the role of retrotransposons in horizontal gene transfer of ctDNA, experiments were conducted to test the impact of inhibiting reverse transcriptases or integrases on ctDNA integration. Multiple myeloma (MM1s), pancreatic cancer (MIA), and colon cancer (HCT116) cell lines were treated with the reverse-transcriptase inhibitors zidovudine or didanosine, and with the integrase inhibitor raltegravir prior to adding the ctDNA to culture media.

[2] = test system: pancreatic cancer cell lines (MIA Paca-2 [MIA] and PANC1); experiment: Cell viability: sensitivity to gemcitabine after culture with patient plasma
Description: For the corresponding DNase I-treated samples, plasma was treated with DNase I for 10 minutes. GR: Gemcitabine resistant.
Gemcitabine (GEM)-sensitive pancreatic cancer cell lines (MIA Paca-2 [MIA] and PANC1) were cultured for 24 h with DNase-treated or non-treated plasma from (GEM)-resistant (GR) patients or control plasma.
Cell viability: Cell viability assays were performed in 96 well, black, clear-bottom microplates. For MM cell line studies, 3×10^4 cells were cultured for 24 hours with media containing 10% human plasma of a bortezomib-resistant or-sensitive patient or a control non-cancer patient. Cells were then cultured for 24 hours with titrating concentrations of bortezomib (doses: 0, 5, 10, 15, 50 nM; Sigma). For PC cell lines viability studies, 1×10^4 cells were incubated for 24 hours with media containing plasma of a gemcitabine-resistant patient or non-cancer patient. Subsequently, titrating concentrations of gemcitabine (doses: 0, 10, 25, 50, 100, 200 μM; Sigma-Aldrich, MO) were added to the culture media and cells were then incubated for 96 hours. CellTiter-Blue Cell Viability Assay was used to evaluate cell viability according to the manufacturer's instructions (Promega). Cell viability was measured by a fluorescent protocol in an microplate reader. Experiments were performed in triplicate of 3 independent studies.

[3] = test system: MM1s (multiple myeloma) cell genome; experiment: ctDNA coculture with MM1s cells, whole genome sequencing: genomic insertion sites, transposons at insertion points and SNVs (multiple myeloma); conditions: for Gene: gene at identified genomic insertion site; for Gene / Location / No. SNP / Chr position: multiple myeloma; for Location / Chr position: identified genomic insertion site; for Location: chromosome; for No. SNP: number of single nucleotide variants (SNVs or SNPs) identified
Description: The integration of ctDNAs into the host cell genome was evaluated. ctDNA was extracted from patient plasma, cultured for 24 hours with cells of a matching cancer cell type or non-matching cancer cell type, and whole genome sequencing was performed. The cell lines used were MM1s (multiple myeloma, MM) and MIA (pancreatic cancer, PC).
Single nucleotide variants (SNVs) unique to the ctDNA that were found in the host cell genome under matching coculture conditions were identified.
The sequence data was used to reconstruct genomic contigs for each experimental condition by de novo assembly. […] Coculture contigs carrying a ctDNA insertion were identified using NucDiff analysis. BLAST alignment analysis further validated the gain of ctDNA fragments in coculture conditions and identified the transition points of ctDNA insertion (FIGS. 3A-3C). […] The remaining 20% inserted into a chromosomal location distinct from their site of origin.
Experiments were designed to identify the presence of transposons in ctDNA fragments. To map ctDNA genomic junctions more precisely, a PACBIO probe was ligated to multiple myeloma and pancreatic cancer ctDNA samples to label their 5′ and 3′ ends. Whole-genome sequencing of DNA from cells with ctDNA genomic integration was done using the Illumina platform. De novo assembly was performed on the sequencing output. ctDNA contigs containing PACBIO adaptor were then matched to those contigs containing inserted ctDNA sequences identified in the coculture experiments. Transposable element on ctDNA sequences at the insertion points (<100 nucleotides from transition point between cell and ctDNA) were detected and classified using RepeatMaster.
A search was conducted for transposons that preferentially target cells of matching tumor types. The lists of transposons identified at the ctDNA insertion point in matching and mismatched coculture conditions were compared (e.g., MM ctDNA with MM cells or PC cells). Transposons were selected that were uniquely or preferentially inserted in the matching conditions.
In multiple myeloma, AluSp, MER11, MER11C, AluJb, and L2a, among other subfamilies of retrotransposons were identified at the MM ctDNA insertion sites (FIG. 5B and TABLE 7).
Whole-genome sequencing and Whole exon sequencing: ctDNA was extracted from 10 MM and 10 PC patients. DNA from CD138 (+) cells and from cell lines used in in vitro experiments (MM1s and MIA) was extracted using Blood & Cell Culture DNA Mini Kit (Quiagen, MD). DNA from […] paraffin embedded pancreatic tumors was obtained using QIAamp DNA FFPE Tissue Kit Print (Qiagen, MD).
After extraction, ctDNA was ligated to the PACBIO adaptor ([…]) using the ABM DNA Library Prep Kit for Illumina Sequencing (Applied Biological Materials Inc. Canada). PACBio-labeled ctDNA and regular ctDNA were subjected to standard methods for library preparation and sequencing using Illumina and Agilent protocols, respectively. Applied Biological Materials Inc. prepared the libraries and performed whole-exon and -genome sequencing. The average target coverage was 50×.
Identification of transposable elements and its nucleotide variants: To determine the locations of transposable-like regions in contigs, sequences were analyzed and transposable elements (TEs) were identified and classified using RepeatMasker version 4.1.0 and the Dfam database (release 3.1) of repetitive DNA families was used as a reference for identifying repeats in ctDNA contig sequences that were part of qualifying structural events. For each repeat sequence identified by RepeatMasker, the overall frequency of the specific repeat (e.g., for AluSp or L1) and their parent class (e.g., SINE) was computed.
Once the TE elements were identified, hit repeats/TE sequences, unique contigs for all samples, and insertion sequence were aligned with MAFFT software version. […]

**Q.** How did the ctDNA chromatid integration [1] turn out when `Cc1nnc(C(=O)NC(C)(C)c2nc(C(=O)NCc3ccc(F)cc3)c(O)c(=O)n2C)o1` [raltegravir] was run?
**A.** The ctDNA chromatid integration was “significantly reduced”.

**Q.** `O=c1[nH]cnc2c1ncn2[C@H]1CC[C@@H](CO)O1` [didanosine] was tested. Which ctDNA chromatid integration [1] did it give?
**A.** The ctDNA chromatid integration was “significantly reduced”.

**Q.** Which ctDNA chromatid integration [1] does the source give for `Cc1cn([C@H]2C[C@H](N=[N+]=[N-])[C@@H](CO)O2)c(=O)[nH]c1=O` [zidovudine] here?
**A.** The ctDNA chromatid integration was “significantly reduced”.

**Q.** With `Nc1ccn([C@@H]2O[C@H](CO)[C@@H](O)C2(F)F)c(=O)n1` [gemcitabine] as the molecule, how does the response to gemcitabine ([2]; cells cultured 24 h with non-DNase-treated GR patient plasma, vs control serum) read?
**A.** Its response to gemcitabine is “became resistant”.

**Q.** What about the response to gemcitabine ([2]; cells cultured with DNase-treated GR plasma) of the same molecule?
**A.** The response to gemcitabine was “restored the inherent sensitivity”.

**Q.** What about the response to gemcitabine ([2]; control serum treated with DNase) of the same molecule?
**A.** The response to gemcitabine was “increased resistance”.

B1: 3 (nucleic acid, listed as Homo sapiens)
chain: TCTCACCACCTCTACTACTGCCTATCTGCATCTGGGTGCACGTCCTCTGCTATTCCTTCTGTTTCTACAGAAGCTGTCCATATTTCTAAGGCTAATCCCTTGCATTTTGGTACCAGACTTCCCTGACCTACACAAAGATGATCACCCCCCAAAATTGCCTTTCTTTCCTGCATCAAGTTTTTTCTTCTCTACTGTATTATTCCTATTGCACATTAGCCCAAAAAATGCCGTTGTTTTTCCATCGGTAAAAAAAAAAAATAGAGAGAAAAAGAAAAATAATCCATTGCCGCCAATCTATCTTCTAGTCATTTTTCCATTTCTCTGTTCTCCATTCTGCATAAACCATTTTTACTTGAATTGTTTATACTTGCTGTTTACAACAAACCTCCTCTTTCTCTCCACCCCAATCAGATTTTGGTCCACATTCCTCATGCAGTGGTCAGTCCTTGGTCCTCAACCTAGTCTAGCCTGCTTGCTGGTGGGTGTGCTCTCGGGGCATTTGCTTGTGTTTGCACGACAGCTCAGTCCCTCACTTCTCTCAAGTCTTTGCTAATAACACTCTTGCATCCAAGTCTTCCCTGACCTGCTACTTAAAAACAACTCACCCCCACCCCTAGAAATCCCTATCCTCTTCCCTACGCTTTATTTTTCTCCATAATACTTATCACCATGTAGCTGAACATGTATTTTACTCACTTTTTTTTATATTGTCCATCTTCCCTCAGTGAATTGAAAGCTCCATGAGGGCAGGAGGTTTTGTTTATTGTGTTTACTGCTTTATCCCTAGCACCCAGCACAGCATATGTGATATAGTAGACACTCAATACAAATCTGATGTGTGTGTGTCT
**Q.** B1 was tested. Which Gene [3] did it give?
**A.** The Gene was “AKAP6”.

**Q.** What about the Location [3] of the same molecule?
**A.** Its Location is “Chr4”.

**Q.** And the “No. SNP” value [3]?
**A.** Its value is “Many”.

B2: THE1C (nucleic acid, listed as Homo sapiens)
DNA: TGATATGGTTTGGCTGTGTCCCCACCTAAATCTCATCTTGAATTGTAGTTCCCATAATCCCCATGTGTCATGGGAGGGACCCAGTGGGAGGTAATTTAATCCTGGGGGCAGTTACCCTCCTGCTATGTGTGTGTGTGTGTGTGTGTTCTCACGAGATCTGATGGTTTTATAAGGGGCTTTTCCCCCTTCGCTCGGCACTTCTCCTTCCTGCCGCCATGTGAAGAAGGACGTGTTTGCTTCCCCTTCCGCCATGATTGTAAGTTTCCTGAGGCCTCCCCAGCCATGCNGAACTGTGAGTCAATTAAACCTCTTTCCTTTATAAATTACCCAGTCTCGGGTGTGTCTTTATTAGCAGCGTGAGAACGGACTAATACA
modifications: misc_difference 287 a, c, t, g, unknown or other
**Q.** With B2 as the molecule, how does the blast orientation ([3]; TABLE 7, multiple myeloma co-culture, BLAST alignment orientation) read?
**A.** Its blast orientation is “Plus/Minus”.

**Q.** And the blast chr ([3]; TABLE 7, multiple myeloma co-culture, chromosome with the longest result for BLAST analysis of the full contig)?
**A.** The blast chr was “chr14”.

**Q.** What about the Transposon orientation ([3]; TABLE 7, multiple myeloma co-culture, compared with the human reference genome) of the same molecule?
**A.** Its Transposon orientation is “direct”.

**Q.** And the Distance from insertion ([3]; TABLE 7, multiple myeloma co-culture, distance between insertion and the transposon (0 if they overlap))?
**A.** The Distance from insertion was 0.

**Q.** What about the “Location relative to insertion” value ([3]; TABLE 7, multiple myeloma co-culture, location of the transposon relative to the insertion on the contig) of the same molecule?
**A.** The value was “intersect”.

B3: 23 (nucleic acid, listed as Homo sapiens)
chain: TTCATCTTACAGAGATAAACATTTATCTTGATTCAGCAGTTTGGAAACACTGTTTTTATCCATTCTGTGAATGGACATTTGGGAGTTCATTAAGGCACACATGAAAAGGTGTATATCCCAGGGTAAAAACTAGAAGGAAGCTATCTGAGAAACCACTCTGTGGTGTGTGCATTGATCTCGCTGATTTAAAGCTTTCTTTTGATTCAGCAGTTTGGAATCACTGTTTGTGCTCATTCTGTAAATGGATATTTGGGAGCTCATTGAGGTCAATGGCAAAAAAGTGAATAACTGAGGATAAAAACTAGAAATAAGCTATCTGAGAAACGGATTTATGATGTGTGCATTCATCTCGCAAAATTAAACATTTCTTTTCCTTCAACAGTTTGGAAACACGGTTTTTATAGGATCTGCAAAGGGATATTTTGGAGCACATTGAGGTCTATGGTGTAAAAGAAAATATCTTCAGATAAAACCTAGAAAGAAGCTTTCTGAGAAATTGCATTTTGATGTGTGCATTCATCTCACAGAGTTAATACTTTTTTTTGATTCACCAGTGTGGATACACTGTTTTTGTCCATTCTGCTAATGGACCTTTGGGGGCTCATTTAGGCCAATGGCAAAAAAGTGAATATCCCAGGATAAAAACTAGAAGGAAGGTATCTGAGAAACTGCTATGTGATGTGTGCCATCATCTCACAGTCTTAAAAGTTTCTTTTCATTCACCAGTTTGGAAACAGTGTTTTTGTAGAATCTGCAAAGTCATATTTTTGAGT
**Q.** For B3, which Location [3] is on record?
**A.** Its Location is “Chr16”.

**Q.** And the Chr position [3]?
**A.** The Chr position was 32534349.

**Q.** What about the “No. SNP” value [3] of the same molecule?
**A.** Its value is 9.

B4: 24 (nucleic acid, listed as Homo sapiens)
chain: GATGAATGCACATATCACAAAAAGTTTCTCAGATTGCTTCTGTCTAGATTTTATGTGAAGTTATTTCCTTTTCTACCATAGAACCCAAAGCACTTATAATGTCCCCTTGCAGATTCTACAAAAAGAATGTTTCAAAACTGCTCAATCAAAAGAAAGGTTCAAATTTGTGAGATGAATGCTCGCATCACCAAGAAGTTTCTCAAAATACTTCTGTCTAGTTTTTATGTGAAGACATTTCTTTTTCCGTGATAGGTCTCAAAATGATCAAAATTTCCACTTGCAAATTCTACAAAAAGAGAGTTTCAAAGCTGCTCAATCAAAAGAAAGGTTTATATCTGTGAGATGAACACACACTTCACAAAGCAGTTTCTAAGATTTCTTCTGCCTAGATTTTATGTAATGATATTTCCTTTTCTACCATACTTTGCAAACTGCTCCAAATGTCCACCTGTAGATTCTACAAAAACAGTGTTTCCAAACTGCTCAATCAAAAGAAAGGTTAACTCTGTGAGATGAACTCACACATCACAAAGAAGTTTCTCAGAATTCTTCTGTCTAGTTCTAATGTGAAGATATTTCCTTTTGGACCAGAGGCCCCAAGGCTATCGAAATGTCCCCTTGTAGATTCTACAAAAAGAGTATTTCAAAACTGGTCCATCAAGAGAAAGGCTCAACTCTGGGAGATGAATGCACACATCACAAAGAAGTTTCTCAGAATGCTTCTATCTAGTTTTTACATGAAGCTATTTCCTTTTCCACCATAAGCCTCAAAGCGCTCCAAATGTCCACTTGCAGGTTCTGCAAAAAGAGAGTTTCCAAAGTTCTCAATCAAAAGAAACGGTTAACTCTGTGAGATAAATGCACACATCACAAAGAAGTTTCTCAGAATTTTTCTGTCTAGTTTTTGTGTGAAGATATTTCATTTTC
**Q.** What does the source list for B4?
**A.** Gene [3]: AK311573; Location [3]: Chr21; Chr position [3]: 10749086; No. SNP [3]: 49
